According to patent publication US20150087577A1 (POLYPHOR, published 2015):
*1 amine or outer side, *2 acyl side, *3 side chain or, on linkers, in order; H or OH if unused. Bridges are numbered along the chain shown (N, C = ends). [ ]: non-standard residue; d: D form. (Pip)G = N-{3-[1'-(4'-methylpiperazinyl)]-propyl}-glycine, CN1CCN(CCCN(CC(=O)[*:2])[*:1])CC1; 2Nal = N[C@@H](Cc1ccc2ccccc2c1)C(=O)O; Cit = NC(=O)NCCC[C@H](N)C(=O)O; NMeK = CN[C@@H](CCCCN)C(=O)O; Dab = NCC[C@H](N)C(=O)O; Sar = CNCC(=O)O

B1: Example 133 (peptide)
peptide: cyclo(YR[Cit]CRG[dP]RR[2Nal]CYTK[dP]P)
modifications: disulfide 4-11
SMILES: C[C@@H](O)[C@@H]1NC(=O)[C@H](Cc2ccc(O)cc2)NC(=O)[C@@H]2CSSC[C@H](NC(=O)[C@H](CCCNC(N)=O)NC(=O)[C@H](CCCNC(=N)N)NC(=O)[C@H](Cc3ccc(O)cc3)NC(=O)[C@@H]3CCCN3C(=O)[C@H]3CCCN3C(=O)[C@H](CCCCN)NC1=O)C(=O)N[C@@H](CCCNC(=N)N)C(=O)NCC(=O)N1CCC[C@@H]1C(=O)N[C@@H](CCCNC(=N)N)C(=O)N[C@@H](CCCNC(=N)N)C(=O)N[C@@H](Cc1ccc3ccccc3c1)C(=O)N2
B2: Example 128 (peptide)
peptide: cyclo(YR[Cit]CRG[dP]RRWCY[Cit]K[dP]P)
modifications: disulfide 4-11
SMILES: N=C(N)NCCC[C@@H]1NC(=O)[C@@H]2CSSC[C@H](NC(=O)[C@H](Cc3c[nH]c4ccccc34)NC(=O)[C@H](CCCNC(=N)N)NC(=O)[C@H](CCCNC(=N)N)NC(=O)[C@H]3CCCN3C(=O)CNC1=O)C(=O)N[C@@H](Cc1ccc(O)cc1)C(=O)N[C@@H](CCCNC(N)=O)C(=O)N[C@@H](CCCCN)C(=O)N1CCC[C@@H]1C(=O)N1CCC[C@H]1C(=O)N[C@@H](Cc1ccc(O)cc1)C(=O)N[C@@H](CCCNC(=N)N)C(=O)N[C@@H](CCCNC(N)=O)C(=O)N2
B3: Example 130 (peptide)
peptide: cyclo(YRQCRG[dP]RR[2Nal]CY[Cit]K[dP]P)
modifications: disulfide 4-11
SMILES: N=C(N)NCCC[C@@H]1NC(=O)[C@@H]2CSSC[C@H](NC(=O)[C@H](Cc3ccc4ccccc4c3)NC(=O)[C@H](CCCNC(=N)N)NC(=O)[C@H](CCCNC(=N)N)NC(=O)[C@H]3CCCN3C(=O)CNC1=O)C(=O)N[C@@H](Cc1ccc(O)cc1)C(=O)N[C@@H](CCCNC(N)=O)C(=O)N[C@@H](CCCCN)C(=O)N1CCC[C@@H]1C(=O)N1CCC[C@H]1C(=O)N[C@@H](Cc1ccc(O)cc1)C(=O)N[C@@H](CCCNC(=N)N)C(=O)N[C@@H](CCC(N)=O)C(=O)N2
B4: Example 132 (peptide)
peptide: cyclo(YR[Cit]CRG[dP]RR[2Nal]CYTK[dP]P)
modifications: disulfide 4-11
SMILES: C[C@@H](O)[C@@H]1NC(=O)[C@H](Cc2ccc(O)cc2)NC(=O)[C@@H]2CSSC[C@H](NC(=O)[C@H](CCCNC(N)=O)NC(=O)[C@H](CCCNC(=N)N)NC(=O)[C@H](Cc3ccc(O)cc3)NC(=O)[C@@H]3CCCN3C(=O)[C@H]3CCCN3C(=O)[C@H](CCCCN)NC1=O)C(=O)N[C@@H](CCCNC(=N)N)C(=O)NCC(=O)N1CCC[C@@H]1C(=O)N[C@@H](CCCNC(=N)N)C(=O)N[C@@H](CCCNC(=N)N)C(=O)N[C@@H](Cc1ccc3ccccc3c1)C(=O)N2
B5: Example 131 (peptide)
peptide: cyclo(YRTCRG[dP]RR[2Nal]CY[Cit]K[dP]P)
modifications: disulfide 4-11
SMILES: C[C@@H](O)[C@@H]1NC(=O)[C@H](CCCNC(=N)N)NC(=O)[C@H](Cc2ccc(O)cc2)NC(=O)[C@@H]2CCCN2C(=O)[C@H]2CCCN2C(=O)[C@H](CCCCN)NC(=O)[C@H](CCCNC(N)=O)NC(=O)[C@H](Cc2ccc(O)cc2)NC(=O)[C@@H]2CSSC[C@H](NC1=O)C(=O)N[C@@H](CCCNC(=N)N)C(=O)NCC(=O)N1CCC[C@@H]1C(=O)N[C@@H](CCCNC(=N)N)C(=O)N[C@@H](CCCNC(=N)N)C(=O)N[C@@H](Cc1ccc3ccccc3c1)C(=O)N2
B6: Example 134 (peptide)
peptide: cyclo(YR[Cit]CRG[dP][Dab]R[2Nal]CY[Cit]K[dP]P)
modifications: disulfide 4-11
SMILES: N=C(N)NCCC[C@@H]1NC(=O)[C@@H]2CSSC[C@H](NC(=O)[C@H](Cc3ccc4ccccc4c3)NC(=O)[C@H](CCCNC(=N)N)NC(=O)[C@H](CCN)NC(=O)[C@H]3CCCN3C(=O)CNC1=O)C(=O)N[C@@H](Cc1ccc(O)cc1)C(=O)N[C@@H](CCCNC(N)=O)C(=O)N[C@@H](CCCCN)C(=O)N1CCC[C@@H]1C(=O)N1CCC[C@H]1C(=O)N[C@@H](Cc1ccc(O)cc1)C(=O)N[C@@H](CCCNC(=N)N)C(=O)N[C@@H](CCCNC(N)=O)C(=O)N2
B7: Example 129 (peptide)
peptide: cyclo(YR[Cit]CRG[dP]RR[2Nal]CY[Sar]K[dP]P)
modifications: disulfide 4-11
SMILES: CN1CC(=O)N[C@@H](CCCCN)C(=O)N2CCC[C@@H]2C(=O)N2CCC[C@H]2C(=O)N[C@@H](Cc2ccc(O)cc2)C(=O)N[C@@H](CCCNC(=N)N)C(=O)N[C@@H](CCCNC(N)=O)C(=O)N[C@H]2CSSC[C@H](NC(=O)[C@H](Cc3ccc4ccccc4c3)NC(=O)[C@H](CCCNC(=N)N)NC(=O)[C@H](CCCNC(=N)N)NC(=O)[C@H]3CCCN3C(=O)CNC(=O)[C@H](CCCNC(=N)N)NC2=O)C(=O)N[C@@H](Cc2ccc(O)cc2)C1=O
B8: Example 126 (peptide)
peptide: cyclo(YR[Cit]CRG[dP]R[(Pip)G][2Nal]CY[Cit]K[dP]P)
modifications: disulfide 4-11
SMILES: CN1CCN(CCCN2CC(=O)N[C@@H](Cc3ccc4ccccc4c3)C(=O)N[C@H]3CSSC[C@H](NC(=O)[C@H](CCCNC(N)=O)NC(=O)[C@H](CCCNC(=N)N)NC(=O)[C@H](Cc4ccc(O)cc4)NC(=O)[C@@H]4CCCN4C(=O)[C@H]4CCCN4C(=O)[C@H](CCCCN)NC(=O)[C@H](CCCNC(N)=O)NC(=O)[C@H](Cc4ccc(O)cc4)NC3=O)C(=O)N[C@@H](CCCNC(=N)N)C(=O)NCC(=O)N3CCC[C@@H]3C(=O)N[C@@H](CCCNC(=N)N)C2=O)CC1
B9: Example 127 (peptide)
peptide: cyclo(YR[Cit]CRG[dP]RR[2Nal]CY[Cit][NMeK][dP]P)
modifications: disulfide 4-11
SMILES: CN1C(=O)[C@H](CCCNC(N)=O)NC(=O)[C@H](Cc2ccc(O)cc2)NC(=O)[C@@H]2CSSC[C@H](NC(=O)[C@H](CCCNC(N)=O)NC(=O)[C@H](CCCNC(=N)N)NC(=O)[C@H](Cc3ccc(O)cc3)NC(=O)[C@@H]3CCCN3C(=O)[C@H]3CCCN3C(=O)[C@@H]1CCCCN)C(=O)N[C@@H](CCCNC(=N)N)C(=O)NCC(=O)N1CCC[C@@H]1C(=O)N[C@@H](CCCNC(=N)N)C(=O)N[C@@H](CCCNC(=N)N)C(=O)N[C@@H](Cc1ccc3ccccc3c1)C(=O)N2

Molecular target: human CXCR4 (human, UniProt P61073 1-352)
Assay: cell-based or functional assay

Sequence of human CXCR4 (P61073 whole entry): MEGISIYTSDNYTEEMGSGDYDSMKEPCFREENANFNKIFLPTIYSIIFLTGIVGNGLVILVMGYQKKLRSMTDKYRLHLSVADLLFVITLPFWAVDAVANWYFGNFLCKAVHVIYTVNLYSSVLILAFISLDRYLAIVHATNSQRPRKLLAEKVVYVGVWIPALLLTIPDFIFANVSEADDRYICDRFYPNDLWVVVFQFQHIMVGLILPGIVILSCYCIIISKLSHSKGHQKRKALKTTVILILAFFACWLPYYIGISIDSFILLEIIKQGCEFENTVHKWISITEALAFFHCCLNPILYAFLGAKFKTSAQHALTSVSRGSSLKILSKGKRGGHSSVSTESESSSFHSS

Binder	IC50 (nM) Ca2+ assay (method 2)
B1	5.3 nM
B2	4.5 nM
B3	4.1 nM
B4	1.9 nM
B5	2.4 nM
B6	1.7 nM
B7	10.9 nM
B8	19.5 nM
B9	52.2 nM
